# PMC6969166, “The molecular basis of pyrazinamide activity on Mycobacterium tuberculosis PanD” (Nature Communications, 2020)
# B1: Mycobacterium tuberculosis PanD (aspartate decarboxylase), wild type, processed active enzyme (enzyme)
# chain 1: MLRTMLKSKIHRATVTCADLHYVG
# chain 2: SVTIDADLMDAADLLEGEQVTIVDIDNGARLVTYAITGERGSGVIGINGAAAHLVHPGDLVILIAYATMDDARARTYQPRIVFVDAYNKPIDMGHDPAFVPENAGELLDPRLGVG
# notes: also called Mtb PanD; Rv3601c; copies: 4 + 4
# Target: the molecule itself
# Experiment: crystal structure
protein,measurement,value
B1,stoichiometry N,4
